Molecular target: human serum albumin (human) (UniProt P02768)
Assay: ITC

Substance: dalbavancin (peptide)
- dH: -8.9 kcal/mol
- stoichiometry N: 0.84

— article doi:10.1101/2020.09.09.287375
